Data taken from patent US6531296.

Molecular target: T1, GST-RbC, Rb fusion protein encoding amino acids 780-928 (COOH-terminal domain only) (UniProt P06400)
T1 sequence (looked up): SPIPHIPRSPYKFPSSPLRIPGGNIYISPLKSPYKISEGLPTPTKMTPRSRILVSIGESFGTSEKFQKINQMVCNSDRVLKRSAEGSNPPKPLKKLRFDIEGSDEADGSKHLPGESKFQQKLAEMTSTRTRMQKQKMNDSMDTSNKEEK
Assay: in vitro translated Rak on GST-RbC beads, SDS-PAGE and autoradiography (FIG. 5B, upper panel)

B1: Rak protein (p54^rak), full-length nuclear tyrosine kinase (enzyme)
chain: MSNICQRLWEYLEPYLPCLSTEADKSTVIENPGALCSPQSQRHGHYFVALFDYHAPTAEELSFRAGDKLQVLDTLHEGWWFARHLEKRRDGSSQQLQGYIPSNYVAEDRSLQAEAWFFGAIRRSDAEKQLLYSENKTGSFLIRESESQKGEFSLSVLDGAVVKHYRIKRLDEGGFFLTRRRIFSTLNEFVSHYTKTSDGLCVKLGKPCLKIQVPAPFDLSYKTVDQWEIDRNSIQLLKRLGSGQFGEVWEGLWNNTTPVAVKTLKPGSMDPNDFLREAQIMKNLRHPKLIQLYAVCTLEDPIYIITELMRHGSLQEYLQNDTGSKIHLTQQVDMAAQVASGMAYLESRNYIHRDLAARNVLVGEHNIYKVADFGLARVFKVDNEDIYESRHEIKLPVKWTAPEAIRSNKFSIKSDVWSFGILLYEIITYGKMPYSGMTGAQVIQMLAQNYRLPQPSNCPQQFYNIMLECWNAEPKERPTFETLRWKLEDYFETDSSYSDANNFIR
B1 was tested, and the fold less binding than to the RbABC fusion protein was 5 fold less.
